The nature of this series: protein stability index of a GFP-peptide fusion (GPS, HEK-293T) (PSI 1-6); higher = more stable.
Where [1] appears, read: treatment: DMSO, c terminus: a fixed tail appended.
Where [2] appears, read: treatment: MLN4924 1 uM, 8 h, c terminus: a fixed tail appended.

This note sets out measurements from the supplement of paper PMC10567573.

± gives the standard deviation.
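Note: 24-mer peptide tiles fused after GFP, lentivirally expressed, FACS-sorted into six equal bins by GFP/DsRed ratio, decoded by Illumina sequencing, PSI is the read-weighted mean bin number.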

The sequence SRSPSVEGSLWAVGTESQGRDWRH [PXN] came in with a protein stability index under setting [1] of 4.04 ± 0.11 and a protein stability index under setting [2] of 4.05 ± 0.23.
The like results for LHEALLEYEAGRAGPGGGAERRRA [ESRRA] were, in that order, 4.27 ± 0.34 and 4.82 ± 0.18.
The like results for GASSPAAYDEALAELHAHGPAAFV [ZSWIM9] were, in that order, 3.87 ± 0.22 and 3.99 ± 0.19.
On to YTVNFLEAKEGDLHRIEIPFKFHM [CARM1], for which, under setting [2], the protein stability index worked out at 3.15 ± 1.1.
For TSRGKLGGQDSFESIESYDSCDRL [ETS1], the protein stability index by setting is: under setting [1], 4.62 ± 0.16; under setting [2], 4.68 ± 0.13.
Take AFLEPDETFIVPDSFLVALDMDDG [SPSB1]: the protein stability index reads like this: under setting [1], 3.46 ± 0.25; under setting [2], 3.65 ± 0.48.
The like results for YAVLAAEPELQVGIDIMKTSFPGR [AASDHPPT] were, in that order, 2.61 ± 0.28 and 2.73 ± 0.4.
With YINFRHLYKQRRRRYGQKKKKIH [HACD3], the protein stability index runs as follows: (treatment: DMSO, c terminus: native) 2.12 ± 0.29; (treatment: MLN4924 1 uM, 8 h, c terminus: native) 2.74 ± 0.55.
For AIFWIVFLLLIVFYTAITKKIFKS [P2RY14], the protein stability index is, setting by setting: under setting [1], 2.42 ± 0.6; under setting [2], 2.27 ± 0.2.
Take HSEILKYFQSVTSNRWLMVKIFLI [STX5]: the protein stability index reads like this: under setting [1], 2.32 ± 0.36; under setting [2], 2.4 ± 0.43.
Turning to IPQGICPVGRSWHSLTPVSSDHLF [KLHDC2], the protein stability index is 2.68 ± 0.28 under setting [1] and 2.52 ± 0.21 under setting [2].
The like results for STWSDPSVNISLDNLLPGMQPSKP [CLINT1] were, in that order, 4.3 ± 0.12 and 4.25 ± 0.099.
The like results for CPAELRPQVPQPPSPAAVPRPPSN [TRAF3IP2] were, in that order, 5.18 ± 0.13 and 5.01 ± 0.28.
For TAENERLQKKVEQLSRELSTLRNL [CEBPB] the same measures were 3.69 ± 0.2 and 3.95 ± 0.2.
For TALTSFCAKYTYPVCSALLDPVLQ [FANCE], the protein stability index turned out to be 2.31 ± 0.37 under setting [1] and 2.23 ± 0.35 under setting [2].
On to SLYRDIRDIQDENQLLVADVKRLG [STX11], for which the protein stability index reads like this: under setting [1], 3.67 ± 0.33; under setting [2], 3.58 ± 0.22.
Turning to RRFNFFVLENNLEAVARHMLIFSL [DNAAF3], the protein stability index was determined as 2.77 ± 0.49 under setting [1] and 2.6 ± 0.47 under setting [2].
Take RCPVTVCGDVHGQFHDLMELFRIG [PPP2CA]: the protein stability index under setting [1] is 2.2 ± 0.35 and the protein stability index under setting [2] was found to be 2.24 ± 0.14.
For DCLKACQEQIEAVLLNSLQQYRQD [CCND2], the protein stability index runs as follows: under setting [1], 2.32 ± 0.35; under setting [2], 2.33 ± 0.28.
For EKEMKAQEQRLGIRISMSHEEEPL [GMPPB] the same measures were 5.23 ± 0.25 and 5.24 ± 0.086.
For NNPISEHFHPTVIGESMYGDFEEA [TENT5C] the same measures were 4.89 ± 0.28 and 4.89 ± 0.17.
The like results for SSGSFCYCHPDSETDEDEEEGDEQ [GMCL1] were, in that order, 5.52 ± 0.17 and 5.39 ± 0.14.
For SSTQLCVLNDRFQRQKYLSLQQMQ [NANOGP8], the protein stability index was 2.65 ± 0.14 under setting [1] and 2.83 ± 0.1 under setting [2].
The like results for EKFSDEGDSDSALDSVSPCPSSPK [DLC1] were, in that order, 5.41 ± 0.51 and 5.58 ± 0.13.
The like results for LVTGLAIEEACYAQTIPTKDRLEG [AUH] were, in that order, 3.02 ± 0.34 and 3.13 ± 0.27.
The like results for LDPDSKENAQIIYSLAEDTIQGVP [PCDHGA10] were, in that order, 4.64 ± 0.15 and 4.56 ± 0.23.
For SQPGNAVIDKETIDLLAFTSVAEL [SDE2], the protein stability index runs as follows: under setting [1], 3.43 ± 0.3; under setting [2], 3.46 ± 0.32.
The like results for LEIELQSQLSMKASLENSLEETKG [KRT16] were, in that order, 5.28 ± 0.066 and 5.16 ± 0.17.
The like results for EFSRATAEKVNQDMCMKVPDDPEH [CRYL1] were, in that order, 5.62 ± 0.17 and 5.12 ± 0.75.
As for PSNRSFFSEIISSISDVKFSHSGR [PPP2R2B], the protein stability index is, setting by setting: under setting [1], 2.73 ± 0.44; under setting [2], 2.78 ± 0.39.
The like results for VCQRMLNQGFLKVERYHNLCQKQV [FBXO28] were, in that order, 2.18 ± 0.36 and 2.37 ± 0.27.
For SVVNVGCGPAEERVLLTGLHAVAD [YPEL3], the protein stability index reads like this: under setting [1], 3 ± 0.78; under setting [2], 3.29 ± 0.7.
The like results for GSQLEDQALRGLEGYTWRVAQLED [ZSWIM9] were, in that order, 3.98 ± 0.55 and 4.25 ± 0.2.
As for EEETVTTKHIHITQATETTTTRHK [CLINT1], the protein stability index runs as follows: under setting [1], 5.15 ± 0.2; under setting [2], 5.19 ± 0.44.
The like results for TQSWSSQSSFNSLQRVPSYDSFDS [ETS1] were, in that order, 4.06 ± 0.2 and 3.98 ± 0.22.
Turning to RSSPDDLKALTRNVNRLNESFRDL [SCARA5], the protein stability index turned out to be 3.95 ± 0.34 under setting [1] and 3.88 ± 0.32 under setting [2].
Turning to KDIQPYMRRMVATWMLEVCEEQKC [CCND2], the protein stability index is, setting by setting: under setting [1], 2.33 ± 0.24; under setting [2], 2.65 ± 0.3.
In the case of ANSAFAVDLFKQLCEKEPLGNVLF [SERPINB5], the protein stability index under setting [1] stood at 2.08 ± 0.29 and the protein stability index under setting [2] came to 2.47 ± 0.3.
Consider ELAEATWCGISTDMWRSENQNRAY [ZBED1], for which the protein stability index is, setting by setting: under setting [1], 2.84 ± 0.33; under setting [2], 2.8 ± 0.44.
The like results for QIEKKEKKLHKIQNKAQRQKDLIM [TAF7L] were, in that order, 3.64 ± 0.32 and 3.85 ± 0.28.
With LFVTFLLIYMVTIMGNLLIIVTIM [OR4A15], the protein stability index turned out to be 3.06 ± 0.41 under setting [1] and 3.29 ± 0.53 under setting [2].
The like results for QDSSVTSKRNIKKGAVPRSIPNLA [HDAC6] were, in that order, 4.17 ± 0.26 and 4.21 ± 0.41.
Turning to SRSYSPRRSRGSPRYSPRHSRSRS [SRSF1], the protein stability index was found to be 5.39 ± 0.24 under setting [1] and 5.5 ± 0.25 under setting [2].
For HLNRGNHEDHMVNLRYGFTKEVMN [PPEF2] the same measures were 2.99 ± 0.3 and 3.16 ± 0.42.
Turning to KQIIRKHAQTFVALCATDVKFISN [CCND1], the protein stability index runs as follows: under setting [1], 2.26 ± 0.1; under setting [2], 2.39 ± 0.055.
The like results for RTSTFDPSHSDNLLHGLNLLWRKQ [KLHL14] were, in that order, 2.96 ± 0.17 and 2.94 ± 0.15.
With ESPDEMELDELLKEISRKRRSIRY [PTPRD], the protein stability index worked out at 3.05 ± 0.24 under setting [1] and 3.4 ± 0.069 under setting [2].
As to SSQGVATPAITVSNSCPAELPNIK [TFE3], the protein stability index is, setting by setting: under setting [1], 5 ± 0.11; under setting [2], 4.96 ± 0.24.
The like results for TAGKVLAHFYGVKLEGKVPMHKLF [ESRRA] were, in that order, 2.41 ± 0.39 and 2.44 ± 0.79.
The sequence NVPNVCRMYCSDLLNPNLKDTVIC [SPACA3] returned a protein stability index under setting [1] of 2.15 ± 0.3 and a protein stability index under setting [2] of 2.31 ± 0.28.
Sequence LIRYICGVVHPSNEVLSSDILPRW [INTS3] came in with a protein stability index under setting [1] of 2.66 ± 0.26 and a protein stability index under setting [2] of 2.56 ± 0.49.
QHCRQSLASRIRSNKKMLLLVGGL [KLHL14] yielded a protein stability index under setting [1] of 2.54 ± 0.83 and a protein stability index under setting [2] of 2.24 ± 0.43.
For RKSLFDDKAVEIEELTYIIKQDIN [STX5] the same measures were 2.9 ± 0.18 and 2.76 ± 0.31.
For ERLLAVAERYGLSGSDVLDNVAYA [RAD51] the same measures were 2.8 ± 0.23 and 2.95 ± 0.094.
For NIRSARGNNPNGREAKMICFKSVA [ELOA2] the same measures were 3.4 ± 0.15 and 3.34 ± 0.27.
In the case of RSQYEALVETNRREVEQWFATQTE [KRT34], the protein stability index reads like this: under setting [1], 4.29 ± 0.25; under setting [2], 4.33 ± 0.33.
SPGELEEDLLLPGACPGADEAGGG [WEE1]: the protein stability index reads like this: under setting [1], 5.42 ± 0.24; under setting [2], 5.5 ± 0.12.
For DLGNACWVHKHFTEDIQTRQYRSI [SRPK2] the same measures were 2.61 ± 0.23 and 2.72 ± 0.11.
The like results for VSGDLTKEDIDLIDILWRQDIDLG [NFE2L1] were, in that order, 3.02 ± 0.78 and 3.58 ± 0.61.
For KNFFKKAAAALFGGKKDKARYIDT [PLK2], the protein stability index reads like this: under setting [1], 1.95 ± 0.33; under setting [2], 2.4 ± 0.63.
TCIDMDWKVLTWLRYTLWIPLYPL [HACD3]: the protein stability index reads like this: under setting [1], 3.08 ± 0.28; under setting [2], 3.29 ± 0.5.
For EVMERDAKDYADSIHAIFVETSAK [RAB22A] the same measures were 4.15 ± 0.28 and 4.13 ± 0.24.
The like results for YRHLLEGEDCKLPPQPCATACKPV [KRT36] were, in that order, 3.97 ± 0.2 and 3.93 ± 0.11.
With GRDWRHLPTITSELSGAPRCHTVP [PXN], the protein stability index reads like this: under setting [1], 3.44 ± 0.48; under setting [2], 3.51 ± 0.17.
The like results for VLDCRPYLAFAASNVRGSLNVNLN [DUSP5] were, in that order, 2.19 ± 0.34 and 1.99 ± 0.39.
For VNAVRKLLIEGRSVNEHTEEGESL [ANKRD17] the same measures were 4.73 ± 0.24 and 4.79 ± 0.35.
In the case of AALELLPRELFPPLFMAAFDGRHS [PRAME], the protein stability index by setting is: under setting [1], 2.27 ± 0.38; under setting [2], 2.4 ± 0.18.
The like results for SLSGVMLTDVSPEPLQALLERASA [PRAME] were, in that order, 3.61 ± 0.4 and 3.51 ± 0.31.
Regarding LPVETLGPASRMDPESERALQAPH [PBXIP1], the protein stability index came to 4.58 ± 0.43 under setting [1] and 4.84 ± 0.33 under setting [2].
In the case of PEVLDRESRDRPSCAPSASIPKLK [PWWP2B], the protein stability index is, setting by setting: under setting [1], 5.04 ± 0.21; under setting [2], 5.25 ± 0.15.
In the case of DCLQGIRKGLQHGFFDFETFDVDE [CDC14A], the protein stability index was found to be 3.33 ± 0.3 under setting [1] and 3.62 ± 0.61 under setting [2].
The like results for FHIFRTLEVNRLMGKLLQQPNTYA [PKD2L1] were, in that order, 2.46 ± 0.68 and 2.5 ± 0.26.
